The record followed here is patent US20240043507A1 (RQ BIOTECHNOLOGY, published 2024).

Substitutions are numbered along the chain they refer to.

One may read the Kd as the equilibrium constant for the complex coming apart.

In assay [1] the target is T1, SARS-CoV-2 receptor binding domain, native (501N) (SARS-CoV-2, UniProt P0DTC2 330-532).
T1 construct: range 330-532
Kind of assay: BLI, RBD immobilised on AR2G biosensor, 1:1 fit. A general note: In BLI a coated tip is dipped into the sample, and binding shifts an interference pattern.

For assay [2], the target named is T2, SARS-CoV-2 spike receptor binding domain, native (SARS-CoV-2, UniProt P0DTC2 330-532).
T2 construct: range 330-532
Kind of assay: BLI, RBD on AR2G biosensor, mAb as analyte.

Assay [3] concerns the target T3, SARS-CoV-2 receptor binding domain (RBD), native (SARS-CoV-2, UniProt P0DTC2 330-532).
T3 construct: range 330-532
Kind of assay: crystal structure.

B1: Fab of antibody 40 (Fab, V domains shown)
VH: QVQLVESGGGLVQPGGSLRLSCAVSGFTVSRNYMSWVRQAPGKGLEWVSLIYSGGSTFYADSVKGRFTISRDNSKNTLYLQMNSLRAEDTAVYYCARDLFHRSGYHDYWGQGTLVTVSS
VL: not shown
notes: also called 40 Fab; Fab 40
In the case of B1, the Kd in assay [1] was 0.55 nM.

B2: Fab of antibody 88 (Fab, V domains shown)
VH: QLQLQESGPGLVKPSQTLSLTCTVSGGSISSGSYNWTWIRQPAGKGLEWIGRIYNSGSTNYNPSLKSRVTISVDTSKNQLSLKVRSVTAADTAVYYCARHCSGGTCYPKYYYGMDVWGQGTTVTVSS
VL: QSALTQPPSVSEAPRQRVTISCSGSSSNIGNNAVNWYQQFPGKAPKLLIYYDDLLPSGVSDRFSGSKSGTSASLAISGVQSEDEADYYCAAWDDSLNVVVFGGGTKLTVL
notes: also called 88 Fab; Fab 88
B2 yielded a Kd in assay [1] of 0.64 nM.

B3: antibody 88 (antibody, V domains shown)
VH: B2 VH
VL: B2 VL
notes: also called mAb 88
For the molecule B3, the affinity in assay [2], expressed as Kd, was 2.9 nM.

B4: Fab of antibody 281 (Fab, V domains shown)
VH: QVQLVESGGGLVQPGGSLRLSCAASGFPFSIYWMSWVRQAPGKGLEWVANIKQDGSEKYYVDSVKGRFTISRDNAKNSLYLHMNSLRGEDTAVYYCASRYYDFRPEAWFDYWGQGTLVTVSS
VL: not shown
Take B4: in assay [1], binding was put at a Kd of 3.2 nM. This lies in the single-digit nanomolar range.

B5: antibody 281 (antibody, V domains shown)
VH: B4 VH
VL: not shown
With B5, the Kd in assay [2] is 0.97 nM. That is a sub-nanomolar value.

B6: Fab 75 (Fab, V domains shown)
VH: QVQLVESGGGVVQPGRSLRLSCAASGFTFNNYPLHWVRQAPGKGPEWVAVISQDGGNKYYVDSVKGRFTISRDNSKNTLYLQMNNLRAEDTALYYCARDVVVVVAARNHYYNGMDVWGQGTTVTVSS
VL: DIQLTQSPSSVSASVGDRVTITCRASQGISSWLAWYQQKPGKAPKLLIYAVSSLQSGVPSRFSGSGSGTDFTLTISSLQPEDFATYYCQQAKSFPFTFGPGTKVEIK
notes: Fab
Consider B6, for which the binding result in assay [3] is “binds”.

B7: antibody 253H165L (antibody, V domains shown)
VH: not shown
VL: DIVMTQSPGTLSLSPGERATLSCRASQSVRSSYLAWYQQKPGQAPRLLIYGASRRGTGIPDRFSGSGSGTDFTLTISRLEPEDFAVYYCQQYGSSPWTFGQGTKVEIK
With B7, the affinity in assay [2], expressed as Kd, was 3.38 nM.

B8: antibody 165 (antibody, V domains shown)
VH: QVQLVQSGPEVKKPGTSVKVSCKASGFTFTSSAVQWVRQARGQRLEWIGWIVVGSGNTNYAQKFQESVTITRDMSTSTAYMELSSLRSEDTAVYYCAAPHCIGGSCHDAFDIWGQGTMVTVSS
VL: B7 VL
notes: also called mAb 165
B8 returned an equilibrium dissociation constant (Kd) in assay [2] of 2.15 nM.

B9: Fab of antibody 222 (Fab, V domains shown)
VH: EVQLVESGGGLIQPGGSLRLSCAASGLTVSSNYMSWVRQAPGKGLEWVSVIYSGGSTFYADSVKGRFTISRDNSKNTLYLQMNSLGAEDTAVYYCARGEGSPGNWFDPWGQGTLVTVSS
VL: DVVMTQSPGTLSLSPGERATLSCRASQSVPSSYLAWYQQKPGQAPRLLIYGASTRATGIPDRFSGSGSGTDFTLTISRLEPEDFAVYYCQHYDTSPRFGGGTKVDIK
Molecule B9 gave a Kd in assay [1] of 0.29 nM. This counts as sub-nanomolar.

B10: Fab of antibody 175 (Fab, V domains shown)
VH: EVQLVESGGGLIQPGGSLRLSCAASGLTVSRNYMSWVRQAPGKGLEWVSLIYSGGSTYYADSVKGRFTISRDNSKNTLYLQMNSLRAEDTAVYYCARDLRGEVWGQGTMVTVSS
VL: not shown
The molecule B10 registered a Kd in assay [1] of 0.97 nM.

B11: antibody 175 (antibody, V domains shown)
VH: B10 VH
VL: not shown
notes: also called mAb 175
For the molecule B11, the Kd in assay [2] is 1.36 nM.

B12: antibody 278 (antibody, V domains shown)
VH: QVQLVQSGAEVKKPGASVKVSCKASGYIFIRYGISWVRQAPGQGLEWMGWISANNGYTNYAQKLQGRVTMTTDTSTSTAYMELRSLRSDDTAVYYCARDGGILTGYLDYFDHWGQGTLVTVSS
VL: DIQMTQSPSSLSASVGDRLTITCRASQSIASYLNWYQQKPGKAPKLLIYAASSLQSGVPSRFSGSGSGTDFTLTISSLQPEDFATYHCQQSYSTLGITFGPGTKVDIK
notes: also called mAb 278
As for B12, in assay [2], the Kd worked out at 4.16 nM.

B13: Fab of antibody 58 (Fab, V domains shown)
VH: QVQLVESGGGLVQPGRSLRLSCAASGFTFDDYAMHWVRQPPGKGLEWVSGVSWNSGTIGYADSVKGRFIISRDNAKNSLYLQMNSLKAEDTALYYCAREVGGTFGVLISREGGLDYWGQGTLVTVSS
VL: SYELTQPPSVSVAPGQTARITCGGNTIGSKSVHWYQQRPGQAPVLVVYDDSDRPSGIPERFSGSNSGNTATLTISRVEAGDEADYYCQVWDSSSDRVVFGGGTKLTVL
In assay [1], B13 gave a Kd of 0.3 nM. This counts as sub-nanomolar.

B14: antibody 58 (antibody, V domains shown)
VH: B13 VH
VL: B13 VL
notes: also called mAb 58
In the case of B14, the Kd in assay [2] was 1.46 nM.

B15: Fab of antibody 158 (Fab, V domains shown)
VH: EVQLLESGGDLIQPGGSLRLSCAASGVTVSSNYMSWVRQAPGKGLEWVSIIYPGGSTFYADSVKGRFTISRDNSKNTLYLQMHSLRAEDTAVYYCARDLGSGDMDVWGKGTTVTVSS
VL: DIVMTQSPSFLSASVGDRVTITCRASQGISSYLAWYQQKPGKAPKLLIQAASTLQSGVPSRFSGSGSGTEFTLTISSLQPEDFATYYCQQLNSYRYTFGQGTKVEIK
notes: also called 158 Fab; Fab 158
For B15, the affinity in assay [1], expressed as Kd, was 0.53 nM.

B16: antibody 158 (antibody, V domains shown)
VH: B15 VH
VL: B15 VL
notes: also called mAb 158
Take B16: the affinity in assay [2], expressed as Kd, was 1.89 nM.

B17: Fab of antibody 318 (Fab, V domains shown)
VH: QVQLVQSGPEVKKPGTSVKVSCKASGFTLTSSAMQWVRQARGQRLEWIGWIVVGSGNTNYAQKFQERVTITRDMSTSTAYMELSSLRSEDTAVYYCAAGRGYNSDFDYWGQGTLVTVSS
VL: AIRMTQSPGTLSLSPGERATLSCRASQSVSSSYLAWYQQRPGQAPRLLIYGTSSRATGIPDRFSGSGSGTDFTLTISRLEPEDFAVYYCQQYGYSVYTFGQGTKVDIK
B17 had a Kd in assay [1] of 2.23 nM.

B18: antibody 318 (antibody, V domains shown)
VH: B17 VH
VL: B17 VL
notes: also called mAb 318
On to B18, for which, in assay [2], binding was characterised by a dissociation constant (Kd) of 4.43 nM.

B19: Fab of antibody 269 (Fab, V domains shown)
VH: QVQLVESGGGLIQPGGSLRLSCAASGLTVNRNYMSWIRQAPGKGLEWVSVIYSGGSTFYADSVKGRFTISRDNSKNTLSLQMNSLRAEDTAIYYCARDFYEGSFDIWGQGTMVTVSS
VL: AIQLTQSPSFLSASIGDRVTITCRASQGISSYLAWYQQKPGKAPKLLIYAASTLQSGVPSRFSGSGSGTEFTLTISSLQPEDFASYYCQQLNSYPAPVFGPGTKVDIK
notes: also called 269 Fab; COVOX-269
In assay [1], B19 had a Kd of 1.59 nM.

B20: antibody 269 (antibody, V domains shown)
VH: B19 VH
VL: B19 VL
notes: also called mAb 269
On to B20, for which the Kd in assay [2] amounted to 0.76 nM.

B21: Fab of antibody 316 (Fab, V domains shown)
VH: not shown
VL: QAVLTQPPSASGSPGQSVTISCTGTSSDVGGYNYVSWYQQHPGKAPKLMIYEVSKRPSGVPDRFSGSKSGNTASLTVSGLQAEDEADYYCSSYAGSNHWVFGGGTKLTVL
notes: also called 316 Fab; Fab 316
On to B21, for which the Kd in assay [1] was determined as 1.5 nM. That is a single-digit nanomolar value.

B22: antibody 398 (antibody, V domains shown)
VH: QVQLVESGGGLVQPGGSLRLSCAASGFTVSSNYMTWVRQAPGKGLEWVSVIYSGGSTYYADSVKGRFTISRDNSKNTLYLQMNSLRADDTAVYYCARDSTADYDFWSGYYVGAFHIWGQGTMVTVSS
VL: B21 VL with A2T, P8A, A10V, V18I, S54T, H98N
notes: also called mAb 398
B22 yielded a Kd in assay [2] of 4.63 nM.

B23: Fab of antibody 398 (Fab, V domains shown)
VH: B22 VH
VL: B21 VL with A2T, P8A, A10V, V18I, S54T, H98N
Take B23: binding in assay [1] was put at a Kd of 1.02 nM. This lies in the single-digit nanomolar range.
